We go through 22 sequences from the DeepSol protein solubility set.

The data set is described as follows: soluble on expression in E. coli; label from the status in PepcDB or PDB records.
As for “MKTALLLVDIQNDYFPNGKMELRNPVEASEYANQLLQHFRTNSEPILHIQHVAIKDDATFFLPNTEGVHIHESVRPLREETVIVKHYPNSFRETNLLEQLKRLNIEHVVVCGMMTHMCIDATVRAAFDFGFQCTVIHDACATKDLSFKNATIPAVYIHNTILASLNGVYANVISTQEFLAT”, the “soluble on expression in E. coli” value is recorded as “not soluble”.
On to “MDGHHVDARPVEPVQGERDGRAGGSGMSLIKSVRHWLRRHPTVATEPATPPARGAHRGQVDHVILFDGTCSSLEAGHETNVGLIFKLLREERRSVQRTIYYEPGLQWGGWLRIGDLVQGKGLNRQIRRAYGYLASHYQPGDRIFLFGYSRGAYAARSLAGVIDRVGLLRREEATERNVRLAWRHYEQGSIRPHARAFSRRHCHARVEIEMVGIFDTVKALGLRLPLLWRLSEDRHAFHSHKLGRTVRHGFHALALDETRTVFEPVLWDYPYHGQIVEQAWFRGGHGDIGGQLAGGRHGSRLLSNIPLVWMLERATHCGLQLPEGWRARHPCDVTAPMTSMYAGWGKIFLSRQRRPTLRCPTEYIHPTALRPEPRRRKWRLRWGGAPEGEPTQGLEHHHHHH”, for which the “soluble on expression in E. coli” value is recorded as “not soluble”.
The same measure for “AEEELETPTPTQRGEAESRGDGLVDVMWEYKWENTGDAELYGPFTSAQMQTWVSEGYFPDGVYCRKLDPPGGQFYNSKRIDFDLYT”: “soluble”.
Under “MIFKVGDTVVYPHHGAALIEAIETRTIKGEQKEYLVLKVAQGDLTVRVPADNAEYVGVRDVVGQEGLDKVFQVLRAPHTEEPTNWSRRYKANLEKLASGDVNKVAEVVRDLWRREQDRGLSAGEKRMLAKARQILVGELALAEGTDSDKAETILDEVLAAAS” stands “not soluble”; under “MNILYTVENSIYVNITNTCPCSCVFCIRNEKDEVANSGSLWLEHEPSVDEVKEAFNKYNLDDYDEIVFCGYGEPLMRINELIDVAKFIKEKSSIKIRINTNGLSDLIHNKKTAILLKDVIDAVSISLNAPNKEAYNRVTQPKFGEKSFDYMLDFAKDCKKYIKEVAFSVVDEISPEEIEESKQLAKKLDIPLRVRHKN”, “not soluble”; under “MGSDKIHHHHHHMNYSHFVGLDVGKKTFDASLMSADEKELSHKSFDNTPTGIQSLLDWIAGYHLSLSKLLFCAENMGSYVTELSVSSVSMGFSLALVCPLTIKKSIGLQRGKNDRIDAKRIANYAVLHYRKLELYKLPDKDLVRLRGWIIIRDNLVKQKVSSIKLLETFSWMAKLADVTESISFLEEQLKSIKERILEVEEDMEQLIAASTSLYTNYLLLRSIKGIGIINAIVLLCVTDNFQRFDNPRKFACYCGVAPFEHTSGISIRGKTQTSSLANKEVKVYLTRAAITAISWDPQMKAYYKRKIAEGKHKASVINAVRAKIIARSFAVIRRQTPFVTLAV”, “not soluble”.
Turning to “GPGSMLRLSLRRWCAAAASGSSTSTAHGSPPATTLPDFYGKSFSVSPRAWAQITRKNSEEGFTNDARYLRLAIDSGGCHGYVYKFSFEKNDEFSCEGDVAIAEVDAVSPSDEAFTGAQPSPRVVVDTLSASKLANATLDYHSELKGSAFVVVGNELVDESCACAMSFSMRKTTRQSVASSSSARGASSGDGGGHGGSGAAAPPAGSSLAANARPISRRSTTRATS”, the “soluble on expression in E. coli” value was “soluble”.
Consider “GSQSSERVVIGSKPFNEQYILANMIAILLEENGYKAEVKEGLGGTLVNYEALKRNDIQLYVEYTGTAYNVILRKQPPELWDQQYIFDEVKKGLLEADGVVVAAKLGFRDDYALAVRADWAEENGVEKISDLAEFADQLVFGSDPEFASRPDGLPQIKKVYGFEFKEVKQMEPTLMYEAIKNKQVDVIPAYTTDSRVDLFNLKILEDDKGALPPYDAIIIVNGNTAKDEKLISVLKLLEDRIDTDTMRALNYQYDVEKKDAREIAMSFLKEQGLVK”, for which the “soluble on expression in E. coli” value is listed as “soluble”.
Consider “MAKLTRLGDLERAVMDHLWSRTEPQTVRQVHEALSARRDLAYTTVMTVLQRLAKKNLVLQIRDDRAHRYAPVHGRDELVAGLMVDALAQAEDSGSRQAALVHFVERVGADEADALRRALAELEAGHGNRPPAGAATET”, for which the “soluble on expression in E. coli” value is on record as “soluble”.
Under “MPKNTKKSQGNKKLEMTNKQFDDLLKEMGGLPEGMNLDPELLAVLRQATNAEFNKVAKEKYGDVPEGSDDDEEQQTSEQNKEQQQSSSSKST” stands “not soluble”; under “MLRSNLCRGSRILARLTTTPRTYTSAATAAAANRGHIIKTYFNRDSTTITFSMEESSKPVSVCFNNVFLRDASHSAKLVTTGELYHNEKLTAPQDIQISEDGKSLVVKWKDGGHHQFPLQFFIDYKGSSFVSPATRKQESRYRPQLWNKRILKDNVKDLLSVSYNEFIDPKDDSKLFQTLVNLQKFGIAFISGTPSSSSEGLTIQKICERIGPIRSTVHGEGTFDVNASQATSVNAHYANKDLPLHTDLPFLENVPGFQILQSLPATEGEDPNTRPMNYFVDAFYATRNVRESDFEAYEALQIVPVNYIYENGDKRYYQSKPLIEHHDINEDNTLLGNYEALIKCINYSPPYQAPFTFGIYDKPSDLNNNLDLNLITTPAKLTERFLFKSFIRGLNLFESHINDFNNQFRLQLPENCCVIFNNRRILHANSLTSSNQQWLKGCYFDSDTFKSKLKFLEEKFPHDK”, “soluble”; under “MGSDKIHHHHHHMEFTKKSKLKNMYVNMNVARMLSKINEYKGRQLLYKKQPKEILENLEKKSLVDCSESTYIGNQRDSSNFNLEKLISNEVTPRSREELSIVEYRDVVKTINSAYESIPISSQTILELHGYLYKFSSTRGGSYKSDNDFIEHNLKPSEFISTDSSVNKVEKAVEEICEAYNTLIEEDEIDILILISAFVLDFILIHPFKEGNIKMARVLILLLLNKNGYEVGRYISLGKIFDDSSYEYYSNLNYLKASIGSEKADMNAWIEYFLETILTAYEKLDDSLNISDKKRQTKTSRIEKIINSTLGYFTKEDIRDLCPDIPEPTINRVFNNLRKQDKIEVVARGRSAKWKKKY”, “not soluble”.
In the case of “MVTKTTLASATSGLLLLAVVAMSGCTPRPQGPGPAAEKFFAALAIGDTASAAQLSDNPNEAREALNAAWAGLQAAHLDAQVLSAKYAEDTGTVAYRFSWHLPKDRIWTYDGQLKMARDEGRWHVRWTTSGLHPKLGEHQTFALRADPPRRASVNEVGGTDVLVPGYLYHYSLDAGQAGRELFGTAHAVVGALHPFDDTLNDPQLLAEQASSSTQPLDLVTLHADDSNRVAAAIGQLPGVVITPQAELLPTDKHFAPAVLNDVKKAVVDELDGKAGWRVVSVNQNGVDVSVLHEVAPSPASSVSITLDRVVQNAAQHAVNTRGGKAMIVVIKPSTGEILAIAQNAGADADGPVATTGLYPPGSTFKMITAGAAVERDLATPETLLGCPGEIDIGHRTIPNYGGFDLGVVPMSRAFASSCNTTFAELSSRLPPRGLTQAARRYGIGLDYQVDGITTVTGSVPPTVDLAERTEDGFGQGKVLASPFGMALVAATVAAGKTPVPQLIAGRPTAVEGDATPISQKMIDALRPMMRLVVTNGTAKEIAGCGEVFGKTGEAEFPGGSHSWFAGYRGDLAFASLIVGGGSSEYAVRMTKVMFESLPPGYLA”, the “soluble on expression in E. coli” value was “not soluble”.
The same measure for “MSLGDGNVEVAIIAYPYMSNFNEFYALVKSNARVSFVRKPKETAKADLVILPGSRNTLESLKWLVENGFVEQLRQRSMNILGICGGFQILGKKIVDPYGIEAGYPTEYEGLGIFDINVHYSKDKVVSMTTGISEYGEMNGYEIRRGVIKYMGEKPLLKITLRNGEKVSVEDGAKKDNIIGISVHGTLFSDGMKKLLKEFNINIHSQSMEEGHHHHHH”: “soluble”.
On to “MSDPVADFLAREQNLFADFDGAPPAAAAANPDAPEADAPAPALDDDFGDLQIAGDEPPPVVHPTDSGVDLDGLVDDNAAAPAIVVPAVEPMVNGNHSASSGGSKGPSPILSTVPRIEAEKIRLWKAQQEQLLSKKDEAEEKKKIELRANAKKELEEWYKQREKTLQLSHDENLKNEKSNQELFAKQQDGDAQWETVNKLVDQQKSKSGKDLSRLKTLLAGLKHAGK”, for which the “soluble on expression in E. coli” value is given as “not soluble”.
In the case of “MKTEEELLNRMQAYCARTEHCRSEVAAKLRQAGTDELMIERLLQRLVEDRFIDEDRFARAYARDKYRFNGWGPKRIALELVKRHIPDSIIGSTLLDLEEGEDKIEDNLPRLLERKLRSIKDTDDRGRLHRLVRWAVGRGFEYEQVMREASRLLRKGYEEDS”, the “soluble on expression in E. coli” value was “not soluble”.
The same measure for “MNDAVPAGNFVPPLILHSDHGGSAMSSSAHRGRILHFLGDPAKLGDKAWEYFEDGLLWIEHGHVRALDHATYLLPQLPADLPLEEHPQRLLLPGFVDCHVHYPQLGVIASYGTQLLDWLETHTFPAEQRFADAGYAAAQAELFLDELLRHGTTTALVFGTVHAVSAEAFFQAAQKRRLRMIAGKVLMDRNAPPALCDTAASGYAESRALIERWHGNGRLQYAVTPRFAPTSSPEQLAAAARLLDEYPGVYLHTHLSENLKEVAWVGELFPQAQDYLDVYHRAGLVGERSVFAHGIHLSERECRCLAHKNAALAHCPSSNLFIGSGLFDLGRAQQYGIRVGIGSDVGGGTSLSLLANLADAYKIQQLRGTSLDPFQALYLATLGGARALDLDGLVGNFLPGREADFVALDLAATPMIAQRMEHARGLADTLFVLNTLGDDRAVAETWVMGERRHVKG”: “not soluble”; for “MSPFMEKTLLLLGVLCCIQVTTALMCYDCNSEFDPRCGDPFEPYSIGEVNCSKQEPLEHLKDKYKPTLCRKTVQKIYGKTRIVRGCGYIPDENTDNKCVRRSGTHDVAAIYCSCTKDLCNGANSPAGQWMMLPLIVAAGLALLLNSRHTIRFQSS”: “not soluble”; for “MIPDFQTLMLPLLKCVSDGQEHKYRDIIEHLAAEFEVTDEERKELLASGSKAVFDNRVGWARTYLKKAGLLDSPKRAILIISDLGREILSKNPPKIDTKYLRRFPAFIEFQNGYRNDGETEEESITEKIHEQTPEEVLDKAYQRIRKSLASELLNKVIDLSPAFFERLVVELLVKMGYGGSIKDAGKALGKSGDEGIDGTIKEDKLGLDIIYIQAKRWRPGNVVGRPELQKFVGALAGQGAKKGIFITTSNFTKEALTYTPRNETKIVLIDGEQLTQLMIDYNLGCTTQQTYELKKLDSDYFGEE”: “not soluble”.
The same measure for “MSLKRVVIIGMGFGGIRAARVLAGKGLDVVLVDRNNYHLFQPLLYQVGTAGLEQESIAYPVRAMAREWRGTRFHLAEVAGVDFPAREVVTGNGRIPYDYLIIGAGSVTNYFGLESVERHAFDLKELVDGERLRNHILTAFERAVVEPDPAKRRALMTFVIVGGGPTGVEFAGALMELVRYVLAKDYPELSVQAARVVLVEAFDRLLAAMPQELQVYTLEKLRAMGVEVLFNARVEGHHHHHH”: “not soluble”.
Consider “GSHMGIKNDLEIRLQKLQQQGNFKNYLEQYPTDASTAAYFLIEIYNDGNIGGRSVIDAGTGNGILACGSYLLGAESVTAFDIDPDAIETAKRNCGGVNFMVADVSEISGKYDTWIMNPPFGSVVKHSDRAFIDKAFETSMWIYSIGNAKARDFLRREFSARGDVFREEKVYITVPRIYRHHSYDRARIEAVIFGVRNHSF”, for which the “soluble on expression in E. coli” value is listed as “soluble”.
The same measure for “MSDAFTDVAKMKKIKEDIRAHEGQLVELTLENGRKREKNKIGRLIEVYSSLFIIEYSDSSDTPGAIDNSYVESYTYSDILTEKTLIRYLD”: “not soluble”.
